Results on 16 molecules are retold here after US20210147507A1, “METHODS TO AUGMENT OR ALTER SIGNAL TRANSDUCTION” (Bellicum Pharmaceuticals, Inc., priority 2017, published 2021).

For the data set, the system named is chimeric Caspase-9 polypeptide. The data set is described as follows: Caspase-9 mutant classes and basal activity (Table 5). Type of data set: cell-based. As to conditions: Caspase-9 mutant class.
Chain of chimeric Caspase-9 polypeptide (P62942 2-108 F37V limits assumed): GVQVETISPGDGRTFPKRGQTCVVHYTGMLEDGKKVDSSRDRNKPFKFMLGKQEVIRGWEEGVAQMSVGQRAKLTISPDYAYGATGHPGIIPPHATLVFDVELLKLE

B1: F404A (protein)
chain: GFGDVGALESLRGNADLAYILSMEPCGHCLIINNVNFCRESGLRTRTGSNIDCEKLRRRFSSLHFMVEVKGDLTAKKMVLALLELARQDHGALDCCVVVILSHGCQASHLQFPGAVYGTDGCPVSVEKIVNIFNGTSCPSLGGKPKLFFIQACGGEQKDHGFEVASTSPEDESPGSNPEPDATPFQEGLRTFDQLDAISSLPTPSDIFVSYSTFPGFVSWRDPKSGSWYVETLDDIFEQWAHSEDLQSLLLRVANAVSVKGIYKQMPGCANFLRKKLFFKTSASRA
For the molecule B1, the “Catalytic activity (class 'Catalytically dead')” value (from here on “Catalytic activity”) is “dead”.

B2: D330A-T317E (protein)
chain: GFGDVGALESLRGNADLAYILSMEPCGHCLIINNVNFCRESGLRTRTGSNIDCEKLRRRFSSLHFMVEVKGDLTAKKMVLALLELARQDHGALDCCVVVILSHGCQASHLQFPGAVYGTDGCPVSVEKIVNIFNGTSCPSLGGKPKLFFIQACGGEQKDHGFEVASTSPEDESPGSNPEPDAEPFQEGLRTFDQLAAISSLPTPSDIFVSYSTFPGFVSWRDPKSGSWYVETLDDIFEQWAHSEDLQSLLLRVANAVSVKGIYKQMPGCFNFLRKKLFFKTSASRA
For B2, the “Catalytic activity” value is recorded as “dead”.

B3: F404S (protein)
chain: GFGDVGALESLRGNADLAYILSMEPCGHCLIINNVNFCRESGLRTRTGSNIDCEKLRRRFSSLHFMVEVKGDLTAKKMVLALLELARQDHGALDCCVVVILSHGCQASHLQFPGAVYGTDGCPVSVEKIVNIFNGTSCPSLGGKPKLFFIQACGGEQKDHGFEVASTSPEDESPGSNPEPDATPFQEGLRTFDQLDAISSLPTPSDIFVSYSTFPGFVSWRDPKSGSWYVETLDDIFEQWAHSEDLQSLLLRVANAVSVKGIYKQMPGCSNFLRKKLFFKTSASRA
Take B3: the “Catalytic activity” value is “dead”.

B4: D315A-D330A (protein)
chain: GFGDVGALESLRGNADLAYILSMEPCGHCLIINNVNFCRESGLRTRTGSNIDCEKLRRRFSSLHFMVEVKGDLTAKKMVLALLELARQDHGALDCCVVVILSHGCQASHLQFPGAVYGTDGCPVSVEKIVNIFNGTSCPSLGGKPKLFFIQACGGEQKDHGFEVASTSPEDESPGSNPEPAATPFQEGLRTFDQLAAISSLPTPSDIFVSYSTFPGFVSWRDPKSGSWYVETLDDIFEQWAHSEDLQSLLLRVANAVSVKGIYKQMPGCFNFLRKKLFFKTSASRA
With B4, the “Catalytic activity” value was “dead”.

B5: G402I (protein)
chain: GFGDVGALESLRGNADLAYILSMEPCGHCLIINNVNFCRESGLRTRTGSNIDCEKLRRRFSSLHFMVEVKGDLTAKKMVLALLELARQDHGALDCCVVVILSHGCQASHLQFPGAVYGTDGCPVSVEKIVNIFNGTSCPSLGGKPKLFFIQACGGEQKDHGFEVASTSPEDESPGSNPEPDATPFQEGLRTFDQLDAISSLPTPSDIFVSYSTFPGFVSWRDPKSGSWYVETLDDIFEQWAHSEDLQSLLLRVANAVSVKGIYKQMPICFNFLRKKLFFKTSASRA
As for B5, the “Catalytic activity” value is given as “dead”.

B6: D330A-Y153F (protein)
chain: GFGDVGALESLRGNADLAFILSMEPCGHCLIINNVNFCRESGLRTRTGSNIDCEKLRRRFSSLHFMVEVKGDLTAKKMVLALLELARQDHGALDCCVVVILSHGCQASHLQFPGAVYGTDGCPVSVEKIVNIFNGTSCPSLGGKPKLFFIQACGGEQKDHGFEVASTSPEDESPGSNPEPDATPFQEGLRTFDQLAAISSLPTPSDIFVSYSTFPGFVSWRDPKSGSWYVETLDDIFEQWAHSEDLQSLLLRVANAVSVKGIYKQMPGCFNFLRKKLFFKTSASRA
Regarding B6, the “Catalytic activity” value was “dead”.

B7: D330A-Y153A (protein)
chain: GFGDVGALESLRGNADLAAILSMEPCGHCLIINNVNFCRESGLRTRTGSNIDCEKLRRRFSSLHFMVEVKGDLTAKKMVLALLELARQDHGALDCCVVVILSHGCQASHLQFPGAVYGTDGCPVSVEKIVNIFNGTSCPSLGGKPKLFFIQACGGEQKDHGFEVASTSPEDESPGSNPEPDATPFQEGLRTFDQLAAISSLPTPSDIFVSYSTFPGFVSWRDPKSGSWYVETLDDIFEQWAHSEDLQSLLLRVANAVSVKGIYKQMPGCFNFLRKKLFFKTSASRA
On to B7, for which the “Catalytic activity” value was “dead”.

B8: C403P (protein)
chain: GFGDVGALESLRGNADLAYILSMEPCGHCLIINNVNFCRESGLRTRTGSNIDCEKLRRRFSSLHFMVEVKGDLTAKKMVLALLELARQDHGALDCCVVVILSHGCQASHLQFPGAVYGTDGCPVSVEKIVNIFNGTSCPSLGGKPKLFFIQACGGEQKDHGFEVASTSPEDESPGSNPEPDATPFQEGLRTFDQLDAISSLPTPSDIFVSYSTFPGFVSWRDPKSGSWYVETLDDIFEQWAHSEDLQSLLLRVANAVSVKGIYKQMPGPFNFLRKKLFFKTSASRA
As to B8, the “Catalytic activity” value is given as “dead”.

B9: G402A (protein)
chain: GFGDVGALESLRGNADLAYILSMEPCGHCLIINNVNFCRESGLRTRTGSNIDCEKLRRRFSSLHFMVEVKGDLTAKKMVLALLELARQDHGALDCCVVVILSHGCQASHLQFPGAVYGTDGCPVSVEKIVNIFNGTSCPSLGGKPKLFFIQACGGEQKDHGFEVASTSPEDESPGSNPEPDATPFQEGLRTFDQLDAISSLPTPSDIFVSYSTFPGFVSWRDPKSGSWYVETLDDIFEQWAHSEDLQSLLLRVANAVSVKGIYKQMPACFNFLRKKLFFKTSASRA
With B9, the “Catalytic activity” value was “dead”.

B10: G402Q (protein)
chain: GFGDVGALESLRGNADLAYILSMEPCGHCLIINNVNFCRESGLRTRTGSNIDCEKLRRRFSSLHFMVEVKGDLTAKKMVLALLELARQDHGALDCCVVVILSHGCQASHLQFPGAVYGTDGCPVSVEKIVNIFNGTSCPSLGGKPKLFFIQACGGEQKDHGFEVASTSPEDESPGSNPEPDATPFQEGLRTFDQLDAISSLPTPSDIFVSYSTFPGFVSWRDPKSGSWYVETLDDIFEQWAHSEDLQSLLLRVANAVSVKGIYKQMPQCFNFLRKKLFFKTSASRA
Regarding B10, the “Catalytic activity” value is on record as “dead”.

B11: F406L (protein)
chain: GFGDVGALESLRGNADLAYILSMEPCGHCLIINNVNFCRESGLRTRTGSNIDCEKLRRRFSSLHFMVEVKGDLTAKKMVLALLELARQDHGALDCCVVVILSHGCQASHLQFPGAVYGTDGCPVSVEKIVNIFNGTSCPSLGGKPKLFFIQACGGEQKDHGFEVASTSPEDESPGSNPEPDATPFQEGLRTFDQLDAISSLPTPSDIFVSYSTFPGFVSWRDPKSGSWYVETLDDIFEQWAHSEDLQSLLLRVANAVSVKGIYKQMPGCFNLLRKKLFFKTSASRA
On to B11, for which the “Catalytic activity” value is “dead”.

B12: G402Y (protein)
chain: GFGDVGALESLRGNADLAYILSMEPCGHCLIINNVNFCRESGLRTRTGSNIDCEKLRRRFSSLHFMVEVKGDLTAKKMVLALLELARQDHGALDCCVVVILSHGCQASHLQFPGAVYGTDGCPVSVEKIVNIFNGTSCPSLGGKPKLFFIQACGGEQKDHGFEVASTSPEDESPGSNPEPDATPFQEGLRTFDQLDAISSLPTPSDIFVSYSTFPGFVSWRDPKSGSWYVETLDDIFEQWAHSEDLQSLLLRVANAVSVKGIYKQMPYCFNFLRKKLFFKTSASRA
In the case of B12, the “Catalytic activity” value is given as “dead”.

B13: 402GCFNF^406AAAAA (protein, UniProt P55211 1-416, looked up, variant G402A C403A F404A N405A F406A)
chain: MDEADRRLLRRCRLRLVEELQVDQLWDALLSRELFRPHMIEDIQRAGSGSRRDQARQLIIDLETRGSQALPLFISCLEDTGQDMLASFLRTNRQAAKLSKPTLENLTPVVLRPEIRKPEVLRPETPRPVDIGSGGFGDVGALESLRGNADLAYILSMEPCGHCLIINNVNFCRESGLRTRTGSNIDCEKLRRRFSSLHFMVEVKGDLTAKKMVLALLELAQQDHGALDCCVVVILSHGCQASHLQFPGAVYGTDGCPVSVEKIVNIFNGTSCPSLGGKPKLFFIQACGGEQKDHGFEVASTSPEDESPGSNPEPDATPFQEGLRTFDQLDAISSLPTPSDIFVSYSTFPGFVSWRDPKSGSWYVETLDDIFEQWAHSEDLQSLLLRVANAVSVKGIYKQMPAAAAALRKKLFFKTS
Turning to B13, the “Catalytic activity” value is “dead”.

B14: 402GCFNF^406CIVSM (Casp-3) (protein, UniProt P55211 1-416, looked up, variant G402C C403I F404V N405S F406M)
chain: MDEADRRLLRRCRLRLVEELQVDQLWDALLSRELFRPHMIEDIQRAGSGSRRDQARQLIIDLETRGSQALPLFISCLEDTGQDMLASFLRTNRQAAKLSKPTLENLTPVVLRPEIRKPEVLRPETPRPVDIGSGGFGDVGALESLRGNADLAYILSMEPCGHCLIINNVNFCRESGLRTRTGSNIDCEKLRRRFSSLHFMVEVKGDLTAKKMVLALLELAQQDHGALDCCVVVILSHGCQASHLQFPGAVYGTDGCPVSVEKIVNIFNGTSCPSLGGKPKLFFIQACGGEQKDHGFEVASTSPEDESPGSNPEPDATPFQEGLRTFDQLDAISSLPTPSDIFVSYSTFPGFVSWRDPKSGSWYVETLDDIFEQWAHSEDLQSLLLRVANAVSVKGIYKQMPCIVSMLRKKLFFKTS
Turning to B14, the “Catalytic activity” value is “dead”.

B15: 402GCFNF^406QPTFT (Casp-8) (protein, UniProt P55211 1-416, looked up, variant G402Q C403P F404T N405F F406T)
chain: MDEADRRLLRRCRLRLVEELQVDQLWDALLSRELFRPHMIEDIQRAGSGSRRDQARQLIIDLETRGSQALPLFISCLEDTGQDMLASFLRTNRQAAKLSKPTLENLTPVVLRPEIRKPEVLRPETPRPVDIGSGGFGDVGALESLRGNADLAYILSMEPCGHCLIINNVNFCRESGLRTRTGSNIDCEKLRRRFSSLHFMVEVKGDLTAKKMVLALLELAQQDHGALDCCVVVILSHGCQASHLQFPGAVYGTDGCPVSVEKIVNIFNGTSCPSLGGKPKLFFIQACGGEQKDHGFEVASTSPEDESPGSNPEPDATPFQEGLRTFDQLDAISSLPTPSDIFVSYSTFPGFVSWRDPKSGSWYVETLDDIFEQWAHSEDLQSLLLRVANAVSVKGIYKQMPQPTFTLRKKLFFKTS
With B15, the “Catalytic activity” value was “dead”.

B16: 402GCFNF^406YCSTL (Casp-2) (protein, UniProt P55211 1-416, looked up, variant G402Y F404S N405T F406L)
chain: MDEADRRLLRRCRLRLVEELQVDQLWDALLSRELFRPHMIEDIQRAGSGSRRDQARQLIIDLETRGSQALPLFISCLEDTGQDMLASFLRTNRQAAKLSKPTLENLTPVVLRPEIRKPEVLRPETPRPVDIGSGGFGDVGALESLRGNADLAYILSMEPCGHCLIINNVNFCRESGLRTRTGSNIDCEKLRRRFSSLHFMVEVKGDLTAKKMVLALLELAQQDHGALDCCVVVILSHGCQASHLQFPGAVYGTDGCPVSVEKIVNIFNGTSCPSLGGKPKLFFIQACGGEQKDHGFEVASTSPEDESPGSNPEPDATPFQEGLRTFDQLDAISSLPTPSDIFVSYSTFPGFVSWRDPKSGSWYVETLDDIFEQWAHSEDLQSLLLRVANAVSVKGIYKQMPYCSTLLRKKLFFKTS
With B16, the “Catalytic activity” value is reported as “dead”.
